Reference: patent publication US20100041597A1 (published 2010)

T1: PKC-ζ (purified isoform) (Homo sapiens (Human), UniProt Q05513 1-592)
T1 construct: also called PKC-zeta; PKCzeta
T1 sequence: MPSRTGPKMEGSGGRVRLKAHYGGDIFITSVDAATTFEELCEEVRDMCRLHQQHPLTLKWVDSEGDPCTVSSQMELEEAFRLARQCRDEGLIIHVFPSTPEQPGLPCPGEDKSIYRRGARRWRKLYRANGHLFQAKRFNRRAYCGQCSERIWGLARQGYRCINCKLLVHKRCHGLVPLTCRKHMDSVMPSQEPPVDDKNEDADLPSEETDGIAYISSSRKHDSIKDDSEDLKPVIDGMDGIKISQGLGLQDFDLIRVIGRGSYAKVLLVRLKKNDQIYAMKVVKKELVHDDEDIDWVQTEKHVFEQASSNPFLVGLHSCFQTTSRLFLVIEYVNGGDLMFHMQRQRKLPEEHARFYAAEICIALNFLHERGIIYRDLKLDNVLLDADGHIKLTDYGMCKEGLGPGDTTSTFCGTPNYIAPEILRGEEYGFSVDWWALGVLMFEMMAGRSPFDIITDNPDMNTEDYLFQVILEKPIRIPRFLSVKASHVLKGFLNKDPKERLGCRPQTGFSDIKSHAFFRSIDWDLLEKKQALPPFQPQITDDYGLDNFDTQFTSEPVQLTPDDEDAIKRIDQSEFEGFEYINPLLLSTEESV

B1: PRE 4 (peptide)
peptide: Ac-KDAQNLIGISI-NH2
notes: Synthetic peptide; also called peptide PRE 4
B2: PRE 11 (peptide)
peptide: Ac-RDAQNLIGISI-NH2
notes: Synthetic peptide; also called peptide PRE 11
B3: PRE 3 (peptide)
peptide: Ac-AKGIQEVKGGDAQNLIGISI-NH2
notes: Synthetic peptide; also called peptide PRE 3
B4: PRE 7 (peptide)
peptide: Ac-ISIGILQNADK-NH2
notes: Synthetic peptide (retro form of PRE 4); also called peptide PRE 7
B5: PRE 12 (peptide)
peptide: Ac-KDAQNLI-NH2
notes: Synthetic peptide; also called peptide PRE 12; Ac-KDAQNLI-NH2
B6: PRE 13 (peptide)
peptide: Ac-RDAQNLI-NH2
notes: Synthetic peptide; also called peptide PRE 13; Ac-RDAQNLI-NH2
B7: PRE 6 (peptide)
peptide: Ac-KDANQLIGISI-NH2
notes: Synthetic peptide; also called peptide PRE 6

biological target: T2, PKC-δ (purified isoform) (Homo sapiens (Human), UniProt Q05655 1-676); experiment: competitive ELISA on purified PKC-δ vs anti-PKC-δ Ab; PRE 50 µM
T2 construct: also called PKC-delta; PKCdelta
T2 sequence (Q05655 whole entry, stated change not applied, canonical isoform): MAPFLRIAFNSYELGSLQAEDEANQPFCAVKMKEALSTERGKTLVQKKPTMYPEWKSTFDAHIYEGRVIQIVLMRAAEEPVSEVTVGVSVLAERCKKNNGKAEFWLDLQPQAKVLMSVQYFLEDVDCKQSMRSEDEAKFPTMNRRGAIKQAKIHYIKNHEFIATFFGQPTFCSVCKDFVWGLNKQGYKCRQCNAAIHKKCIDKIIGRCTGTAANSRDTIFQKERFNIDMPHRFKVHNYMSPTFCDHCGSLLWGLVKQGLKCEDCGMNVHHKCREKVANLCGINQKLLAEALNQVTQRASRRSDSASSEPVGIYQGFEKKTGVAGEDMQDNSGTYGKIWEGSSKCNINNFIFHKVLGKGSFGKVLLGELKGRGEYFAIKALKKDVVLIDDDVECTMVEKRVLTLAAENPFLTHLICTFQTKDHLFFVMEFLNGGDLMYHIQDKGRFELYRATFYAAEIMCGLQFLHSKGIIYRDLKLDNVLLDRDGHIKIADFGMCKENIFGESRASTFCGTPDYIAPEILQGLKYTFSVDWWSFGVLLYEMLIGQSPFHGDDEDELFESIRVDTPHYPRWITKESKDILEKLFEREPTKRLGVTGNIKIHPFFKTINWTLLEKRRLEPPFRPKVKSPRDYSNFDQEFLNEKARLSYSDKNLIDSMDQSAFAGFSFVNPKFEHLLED
Protocol: (§1) Greiner 96 well ELISA plates were coated with the appropriate PKC isoform diluted in PBSN (PBS with Calcium/Magnesium+0.05% Sodium azide w/w). 50 μL/well at 250 ng/mL was used. Control wells contained PBSN only. Plates were incubated overnight at 4° C.
(§2) The plates were washed 3 times with 200 μL of dH₂O per well, then 100 μL of blocking solution was added per well and the plate incubated for 1 h at 37° C. The washing steps with dH₂O were repeated and 50 μL of the appropriate PRE solution (PRE stock solution [20 mM in DMSO] diluted in PBSN) was added and the plate incubated for 1 h at room temperature.
(§3) 50 μL of 1:1000 dilution of Alkaline Phosphatase (AP) conjugated antibody (anti-rabbit for all except zeta, which was anti-goat) was then added and the plate incubated for 1 h at room temperature. Washing with dH₂O was then repeated. Finally, 100 μL of pNPP solution in pNPP buffer (2 mM MgCl₂, 100 mM Sodium bicarbonate in water, pH 9.8) was added to all wells and incubated for 8 minutes for α, βI, βII ε, and ζ, or for 15-20 mins for […] (until sufficient coloration is observed). The reaction was stopped by addition of Stop solution (2N NaOH) and the absorbance at 405 nm was read on a Galaxy Plate reader.

| Binder | binding capacity (%) |
| --- | --- |
| B1 | 29.2% |
| B2 | 34.1% |
| B3 | 48.3% |
| B4 | 3.06% |
| B5 | 2.26% |
| B6 | 0% |
| B7 | 17.5% |

biological target: T1, PKC-ζ (purified isoform); experiment: competitive ELISA on purified PKC-ζ vs anti-PKC-ζ Ab; PRE 50 µM
Protocol: as §1, §2, §3

| Binder | binding capacity (%) |
| --- | --- |
| B1 | 0% |
| B2 | 0% |
| B3 | 14% |
| B4 | 1.83% |
| B6 | 0% |
| B7 | 0% |

biological target: T3, PKC-α (purified isoform) (Homo sapiens (Human), UniProt P17252 2-672); experiment: competitive ELISA on purified PKC-α vs anti-PKC-α Ab; PRE 200 µM
T3 construct: also called PKC-alpha; PKCalpha
Protocol: as §1
After incubation, 5 μL of 1.1:400 anti-PKC (isoform specific antibody) was added per well (to provide a final concentration of 1:4000). For PKC-epsilon, 1.1:800 dilution was used and for PKC-zeta a 1.1:100 dilution was used due to high and low binding affinity, respectively. The plates were then incubated 1 h at room temperature, followed by washing with dH₂O as described above.
as §3

| Binder | binding capacity (%) |
| --- | --- |
| B1 | 22.8% |
| B2 | 13.3% |
| B3 | 22.6% |
| B4 | 6.59% |
| B5 | 0% |

biological target: T2, PKC-δ (purified isoform); experiment: competitive ELISA on purified PKC-δ vs anti-PKC-δ Ab; PRE 100 µM
Protocol: as §1, §2, §3

| Binder | binding capacity (%) |
| --- | --- |
| B1 | 30.7% |
| B2 | 21.5% |
| B3 | 56% |
| B4 | 0% |
| B5 | 1.02% |
| B6 | 0.79% |
| B7 | 13.2% |

biological target: T2, PKC-δ (purified isoform); experiment: competitive ELISA on purified PKC-δ vs anti-PKC-δ Ab; PRE 200 µM
Protocol: as §1, §2, §3

| Binder | binding capacity (%) |
| --- | --- |
| B1 | 17.3% |
| B2 | 18.7% |
| B3 | 57% |
| B4 | 0% |
| B5 | 23.5% |
| B6 | 17.9% |
| B7 | 14% |

biological target: T1, PKC-ζ (purified isoform); experiment: competitive ELISA on purified PKC-ζ vs anti-PKC-ζ Ab; PRE 100 µM
Protocol: as §1, §2, §3

| Binder | binding capacity (%) |
| --- | --- |
| B1 | 0% |
| B2 | 0% |
| B3 | 23.9% |
| B4 | 0% |
| B6 | 0% |
| B7 | 0% |

biological target: T1, PKC-ζ (purified isoform); experiment: competitive ELISA on purified PKC-ζ vs anti-PKC-ζ Ab; PRE 200 µM
Protocol: as §1, §2, §3

| Binder | binding capacity (%) |
| --- | --- |
| B1 | 5.85% |
| B2 | 0% |
| B3 | 29.1% |
| B4 | 1.54% |
| B6 | 4.29% |
| B7 | 0% |

biological target: T4, PKC-βI (purified isoform) (Homo sapiens (Human), UniProt P05771 2-671); experiment: competitive ELISA on purified PKC-βI vs anti-PKC-βI Ab; PRE 50 µM
T4 construct: also called PKC-beta I
T4 sequence (P05771 2-671 limits assumed): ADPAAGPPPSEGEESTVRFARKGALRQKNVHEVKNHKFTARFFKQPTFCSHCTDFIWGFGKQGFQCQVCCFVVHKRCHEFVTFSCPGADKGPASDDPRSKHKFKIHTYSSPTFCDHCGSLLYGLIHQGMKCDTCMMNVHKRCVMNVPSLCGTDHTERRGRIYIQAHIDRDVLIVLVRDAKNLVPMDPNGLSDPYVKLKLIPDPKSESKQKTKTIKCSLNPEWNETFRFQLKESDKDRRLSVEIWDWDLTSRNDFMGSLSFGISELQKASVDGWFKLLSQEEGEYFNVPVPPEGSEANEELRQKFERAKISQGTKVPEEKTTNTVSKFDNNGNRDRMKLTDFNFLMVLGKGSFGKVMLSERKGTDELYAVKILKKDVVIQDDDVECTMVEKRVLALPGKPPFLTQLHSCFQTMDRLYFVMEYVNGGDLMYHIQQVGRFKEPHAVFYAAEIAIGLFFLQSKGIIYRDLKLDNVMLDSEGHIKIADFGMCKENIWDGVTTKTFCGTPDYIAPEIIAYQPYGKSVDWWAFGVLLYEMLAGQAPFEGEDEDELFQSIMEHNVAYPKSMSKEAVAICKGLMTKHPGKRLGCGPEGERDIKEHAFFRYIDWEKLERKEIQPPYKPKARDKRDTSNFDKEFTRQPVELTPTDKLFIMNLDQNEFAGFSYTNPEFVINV
Protocol: as §1, §2, §3

| Binder | binding capacity (%) |
| --- | --- |
| B1 | 6.02% |
| B3 | 26% |
| B4 | 2.1% |
| B5 | 0.79% |
| B6 | 0% |
| B7 | 0% |

biological target: T4, PKC-βI (purified isoform); experiment: competitive ELISA on purified PKC-βI vs anti-PKC-βI Ab; PRE 100 µM
Protocol: as §1, §2, §3

| Binder | binding capacity (%) |
| --- | --- |
| B1 | 15.7% |
| B3 | 22.5% |
| B4 | 0% |
| B5 | 0% |
| B6 | 0% |
| B7 | 7.93% |

biological target: T4, PKC-βI (purified isoform); experiment: competitive ELISA on purified PKC-βI vs anti-PKC-βI Ab; PRE 200 µM
Protocol: as §1, §2, §3

| Binder | binding capacity (%) |
| --- | --- |
| B1 | 7.46% |
| B3 | 23% |
| B4 | 0% |
| B5 | 0% |
| B6 | 0% |
| B7 | 6.14% |

biological target: T5, PKC-βII (purified isoform) (Homo sapiens (Human), UniProt P05771 2-621); experiment: competitive ELISA on purified PKC-βII vs anti-PKC-βII Ab; PRE 50 µM
T5 construct: also called PKC-beta II
T5 sequence (P05771 other isoform, or with tags, fused parts or gaps limits assumed): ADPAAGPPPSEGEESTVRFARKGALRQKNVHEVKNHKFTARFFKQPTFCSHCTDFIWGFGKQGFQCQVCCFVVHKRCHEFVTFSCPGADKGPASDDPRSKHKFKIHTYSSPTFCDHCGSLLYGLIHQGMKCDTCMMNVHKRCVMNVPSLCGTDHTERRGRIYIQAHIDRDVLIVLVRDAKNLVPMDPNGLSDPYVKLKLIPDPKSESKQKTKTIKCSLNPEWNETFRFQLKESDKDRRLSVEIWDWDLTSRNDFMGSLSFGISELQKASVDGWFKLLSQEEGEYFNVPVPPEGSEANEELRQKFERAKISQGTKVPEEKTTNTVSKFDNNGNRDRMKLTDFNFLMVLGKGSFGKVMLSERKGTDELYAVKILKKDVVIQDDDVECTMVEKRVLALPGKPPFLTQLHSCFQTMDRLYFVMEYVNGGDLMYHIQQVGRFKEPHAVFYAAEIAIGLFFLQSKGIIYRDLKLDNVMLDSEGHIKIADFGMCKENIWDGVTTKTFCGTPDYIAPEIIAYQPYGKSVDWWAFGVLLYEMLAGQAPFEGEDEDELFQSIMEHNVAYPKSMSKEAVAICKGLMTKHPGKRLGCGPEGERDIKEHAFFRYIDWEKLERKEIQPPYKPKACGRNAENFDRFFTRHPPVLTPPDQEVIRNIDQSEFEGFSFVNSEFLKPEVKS
Protocol: as §1, §2, §3

| Binder | binding capacity (%) |
| --- | --- |
| B1 | 2.69% |
| B6 | 0% |
| B7 | 0.08% |

biological target: T6, PKC-α (endogenous, human cell lysates and cells) (human, UniProt P17252 2-672); experiment: anti-PKC-α immunofluorescence, V5E-transfected IMR-32 cells loaded with PRE (label on PKC-α and V5E); control with endocytosis reagent 113
T6 construct: Endogenous protein of human cell lysates, on Western blot membranes (denatured) or in fixed cells; also called PKC-alpha; PKC-A
Source text: Neuroblastoma cells from the IMR-32 cell line were stably transfected with a vector containing the V5E sequence of PKC-α as outlined above in Example 13. The V5E sequence is part of the antigenic amino acid sequence that is used to raise the commercially available anti-PKC-α isoform-specific antibody.
The peptides PRE 1, 2, 3, 4, 5, 6, 7, 8, 9, 10, 11, 12 and 13 (see Table 3) were incorporated into the transfected IMR-32 cells via pinocytic endocytosis (Molecular Probes) according to the supplier's recommendations. Following fixation and permeabilization, PKC-α was detected using an Alexa fluor secondary antibody (as described above in Example 8).

| Binder | Relative Fluorescence Intensity |
| --- | --- |
| B1 | 79 |
| B2 | 131 |
| B3 | 83 |
| B4 | 75 |
| B5 | 124 |
| B7 | 73 |
